Experimental data reported in patent publication US11623960 (dated 2023).

What was measured:
Assay in all cases: SPR
[1] = biological target: T1, VEGFR3 (Flt-4) IgD6-7 (human, UniProt P35916)
T1 chain: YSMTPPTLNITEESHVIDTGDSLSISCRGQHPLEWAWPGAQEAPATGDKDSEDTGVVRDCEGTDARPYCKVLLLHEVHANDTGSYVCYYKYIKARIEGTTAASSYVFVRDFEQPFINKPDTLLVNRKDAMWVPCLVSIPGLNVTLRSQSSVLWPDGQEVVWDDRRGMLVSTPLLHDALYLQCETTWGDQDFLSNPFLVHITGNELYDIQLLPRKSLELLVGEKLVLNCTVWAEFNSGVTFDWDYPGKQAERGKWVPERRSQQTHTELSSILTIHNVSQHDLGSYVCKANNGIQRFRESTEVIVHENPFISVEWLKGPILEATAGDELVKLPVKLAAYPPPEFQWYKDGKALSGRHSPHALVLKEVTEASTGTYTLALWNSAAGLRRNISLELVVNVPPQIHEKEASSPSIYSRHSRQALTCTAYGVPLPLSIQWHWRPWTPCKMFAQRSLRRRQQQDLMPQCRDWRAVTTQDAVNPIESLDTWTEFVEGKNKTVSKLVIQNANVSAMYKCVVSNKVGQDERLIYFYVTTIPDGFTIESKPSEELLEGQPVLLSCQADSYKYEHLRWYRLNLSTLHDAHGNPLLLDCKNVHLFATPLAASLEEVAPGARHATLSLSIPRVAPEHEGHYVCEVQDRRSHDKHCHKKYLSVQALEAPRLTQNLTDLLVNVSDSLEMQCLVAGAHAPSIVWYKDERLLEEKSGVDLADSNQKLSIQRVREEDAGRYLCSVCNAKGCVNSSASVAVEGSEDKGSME

[2] = biological target: T2, VEGFR3 (Flt-4) IgD4-7 (human, UniProt P35916)
T2 chain: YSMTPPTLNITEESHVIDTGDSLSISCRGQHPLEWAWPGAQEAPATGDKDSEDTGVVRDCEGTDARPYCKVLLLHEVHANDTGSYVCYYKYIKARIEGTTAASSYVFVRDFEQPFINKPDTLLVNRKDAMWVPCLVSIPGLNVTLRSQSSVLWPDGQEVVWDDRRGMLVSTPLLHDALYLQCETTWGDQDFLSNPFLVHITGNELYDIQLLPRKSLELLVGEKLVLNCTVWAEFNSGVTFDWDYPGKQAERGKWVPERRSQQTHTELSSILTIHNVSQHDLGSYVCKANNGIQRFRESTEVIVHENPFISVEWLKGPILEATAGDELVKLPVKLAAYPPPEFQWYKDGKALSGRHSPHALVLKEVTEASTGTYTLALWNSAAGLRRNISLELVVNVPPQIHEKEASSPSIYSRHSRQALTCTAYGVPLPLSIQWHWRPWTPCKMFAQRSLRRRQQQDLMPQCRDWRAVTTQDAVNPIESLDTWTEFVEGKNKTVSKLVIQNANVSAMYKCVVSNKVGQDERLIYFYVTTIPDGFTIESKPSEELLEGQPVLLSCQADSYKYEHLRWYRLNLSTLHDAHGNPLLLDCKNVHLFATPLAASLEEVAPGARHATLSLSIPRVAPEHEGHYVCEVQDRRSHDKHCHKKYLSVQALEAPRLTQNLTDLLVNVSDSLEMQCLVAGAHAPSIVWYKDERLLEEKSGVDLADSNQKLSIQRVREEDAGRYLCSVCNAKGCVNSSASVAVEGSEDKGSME

[3] = biological target: T3, VEGFR2 (KDR) IgD4-7 (human, UniProt P35968)
T3 chain: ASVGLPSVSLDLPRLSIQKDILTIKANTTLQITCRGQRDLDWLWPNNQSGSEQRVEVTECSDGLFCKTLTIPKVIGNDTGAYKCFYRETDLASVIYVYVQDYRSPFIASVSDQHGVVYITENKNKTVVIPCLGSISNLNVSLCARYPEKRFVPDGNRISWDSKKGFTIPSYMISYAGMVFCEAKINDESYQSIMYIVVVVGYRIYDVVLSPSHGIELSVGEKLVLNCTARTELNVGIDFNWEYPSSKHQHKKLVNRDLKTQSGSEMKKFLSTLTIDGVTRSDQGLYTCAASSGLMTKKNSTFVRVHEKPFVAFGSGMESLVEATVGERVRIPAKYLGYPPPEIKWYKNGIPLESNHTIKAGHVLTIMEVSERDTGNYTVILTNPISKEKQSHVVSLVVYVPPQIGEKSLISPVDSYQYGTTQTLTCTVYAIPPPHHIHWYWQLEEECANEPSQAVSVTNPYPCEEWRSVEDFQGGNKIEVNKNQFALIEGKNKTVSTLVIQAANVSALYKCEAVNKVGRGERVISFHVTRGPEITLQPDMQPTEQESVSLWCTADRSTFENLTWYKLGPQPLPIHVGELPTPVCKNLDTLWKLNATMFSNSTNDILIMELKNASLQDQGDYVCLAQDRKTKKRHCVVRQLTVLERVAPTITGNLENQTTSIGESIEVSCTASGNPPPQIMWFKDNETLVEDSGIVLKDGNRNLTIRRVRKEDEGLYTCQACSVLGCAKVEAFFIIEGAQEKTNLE

[4] = biological target: T4, VEGFR2 (KDR) IgD6-7 (human, UniProt P35968)
T4 chain: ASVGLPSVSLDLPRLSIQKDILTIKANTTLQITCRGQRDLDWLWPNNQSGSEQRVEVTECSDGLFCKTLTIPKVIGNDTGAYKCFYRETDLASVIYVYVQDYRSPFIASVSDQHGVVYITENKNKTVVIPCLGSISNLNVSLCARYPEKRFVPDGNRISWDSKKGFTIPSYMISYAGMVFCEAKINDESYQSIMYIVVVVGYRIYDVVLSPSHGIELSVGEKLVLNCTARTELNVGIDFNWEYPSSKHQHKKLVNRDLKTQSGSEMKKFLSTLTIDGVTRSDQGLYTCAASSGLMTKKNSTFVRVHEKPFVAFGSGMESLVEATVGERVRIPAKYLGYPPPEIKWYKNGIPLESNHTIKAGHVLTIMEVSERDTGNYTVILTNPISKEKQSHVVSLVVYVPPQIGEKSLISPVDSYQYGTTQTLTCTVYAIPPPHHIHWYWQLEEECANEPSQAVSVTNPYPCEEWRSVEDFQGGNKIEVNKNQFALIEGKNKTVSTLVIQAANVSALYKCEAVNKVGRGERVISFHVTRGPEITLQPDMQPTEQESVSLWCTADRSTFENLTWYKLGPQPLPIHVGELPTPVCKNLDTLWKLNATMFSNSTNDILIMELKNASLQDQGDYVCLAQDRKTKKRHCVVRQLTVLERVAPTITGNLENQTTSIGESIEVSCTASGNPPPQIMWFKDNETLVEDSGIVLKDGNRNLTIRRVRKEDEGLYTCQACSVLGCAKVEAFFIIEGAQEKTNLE

Row | Binder | Kd [1] | Kd [2] | Kd [3] | Kd [4]
1 | R2C7-1 (antibody, V domains shown) VH: EVQLQQSGPELVKPGASVKISCKASGYSFTDYFINWVIQRHGKSLEWVGRINPYNGGSFYNQKFKDKATLTVDKSSNIAHMELRSLASEDSAIYYCARSGGNGYDYWGQGTTLTVSS VL: DIVMTQAAPSVPVIPGESVSISCRSSKSLLHSNGNTYLYWFLQRPGQSPQLLIYRMSNLASGVPDRFSGSGSGTAFTLRISRVEAEDVGVYYCMQHLEYPYTFGGGTKVEIK | 13 nM | 3.3 nM | 2.18 nM | 1.13 nM
2 | R2C9-11 (antibody, V domains shown) VH: QVQLQQPGAELVKPGASVKLSCKASGYTFTSYWMHWVKQRPGQGLEWIGEINPSNGRTNYNEKFKSKATLTVDKSSSTAYMQLSSLTSEDSAVYYCANLYFDVWGAGTTVTVSS VL: DIVMTQSPSSLSVSAGEKVTMSCKSSQNLLNSGNQKYYLAWYQQKPGQPPKLLIYGASIRESGVPDRFIGSGSGTDFTLTISSVQAEDLAVYFCQSDHSYPYTFGGGTKLEIK | 4.8 nM | 1.1 nM | 0.46 nM | 1.5 nM
